Experiment [1] concerns the target human full length BAFF (construct PS544), found cleaved in the conditioned media (human, UniProt Q9Y275 134-285). The experiment is described as follows: co-transfection in 293T, anti-FLAG (M2) immunoprecipitation of conditioned media, western blot with anti-BAFF 53.14. How it is done:
At 48 hrs. post-transfection, conditioned media was collected and used for immunoprecipitation experiments. The immunoprecipitation samples contained 200 μl of conditioned media, 5 μg/ml of the anti-FLAG antibody M2 (Sigma) and 800 μl of DMEM containing 10% FCS, glutamine, Pen-Strep, G418 and sodium azide and were incubated at 4° C. for 1 hour, with agitation. Then, 30 μl of ProteinA-Sepharose beads (Pharmacia) was added to the samples and the mixture was incubated overnight at 4° C. with agitation. The beads were collected by centrifugation and then washed one time with the DMEM media described above and then 3 times with PBS. The final pellet containing the beads was then suspended in 2× SDS non-reducing sample buffer and boiled for 5 minutes. The beads were spun out and 25 μl of the supernatant was loaded onto 2 separate 4-20% SDS-PAGE gradient gels (Novex). In order to examine the level of ligand expression, non-immunoprecipitated conditioned media from the co-transfected cells were also loaded. These samples were diluted two fold with 2× non-reducing sample buffer, boiled for 2 min. and then 25 μl was loaded into each lane. Each gel contained a set of immunoprecipitations and a set of non-immunoprecipitated conditioned media. […] The filters were again washed 3 times and then detected using ECL reagents (Amersham). […]
A general note: In western blotting, separated proteins are transferred to a membrane and probed.

Experiment [2] deals with T1, human soluble myc-BAFF Q136 (human, UniProt Q9Y275 136-285).
T1 construct: also called plasmid #JST556
T1 sequence (Q9Y275 136-285): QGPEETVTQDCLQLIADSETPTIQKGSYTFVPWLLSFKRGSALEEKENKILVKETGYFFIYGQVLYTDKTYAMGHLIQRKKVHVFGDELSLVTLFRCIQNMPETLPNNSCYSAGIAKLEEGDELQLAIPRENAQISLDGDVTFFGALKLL
The experiment is described as follows: co-transfection in 293T, anti-FLAG (M2) immunoprecipitation of conditioned media, western blot with anti-myc 9E10. An excerpt:
Plasmids encoding the following human soluble TNF family ligands were constructed with the indicated N-terminal epitope tags beginning at the ligand amino acid residue indicated in a PCR3 based mammalian cell expression vector: FLAG-APRIL, beginning with residue A105 (plasmid #LT033) or H115 (plasmid #LT038), FLAG-TWEAK A106 (plasmid #PS288), myc-APRIL A105 (plasmid #JST557), and myc-BAFF Q136 (plasmid #JST556). […] At 48 hrs. post-transfection, conditioned media was collected and used for immunoprecipitation experiments. The immunoprecipitation samples contained 100 μl of conditioned media, 5 μg/ml of the anti-FLAG antibody M2 (Sigma, St Louis, Miss.) and 900 μl of DMEM containing 10% FCS, glutamine, Pen-Strep, G418 and sodium azide and were incubated at 4° C. for 1 hour, with agitation. Then, 30 μl of ProteinA-Sepharose beads (Amersham Pharmacia, Piscataway, N.J.) was added to the samples and the mixture was incubated overnight at 4° C. with agitation. The beads were collected by centrifugation and then washed one time with the DMEM media described above and then 3 times with PBS. The final pellet containing the beads was then suspended in 2× SDS non-reducing sample buffer and boiled for 5 minutes. […] The filter was again washed 3 times and then detected using ECL reagents (Amersham Pharmacia, Piscataway, N.J.). […]

Chain of human full length BAFF (construct PS544), found cleaved in the conditioned media (Q9Y275 134-285): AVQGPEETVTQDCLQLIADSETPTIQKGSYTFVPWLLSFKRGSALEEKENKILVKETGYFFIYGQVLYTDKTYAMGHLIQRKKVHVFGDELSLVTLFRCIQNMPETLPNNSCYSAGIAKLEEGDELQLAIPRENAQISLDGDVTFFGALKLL

B1: soluble FLAG-tagged human TWEAK beginning at A106 (ligand, UniProt O43508 106-249, looked up, not shown: small tags and cut ends)
chain: AIAAHYEVHPRPGQDGAQAGVDGTVSGWEEARINSSSPLRYNRQIGEFIVTRAGLYYLYCQVHFDEGKAVYLKLDLLVDGVLALRCLEEFSATAASSLGPQLRLCQVSGLLALRPGSSLRIRTLPWAHLKAAPFLTYFGLFQVH
notes: also called FLAG-TWEAK A106; plasmid PS288
Take B1: the binding result in experiment [1] and in experiment [2] was “no binding” throughout.

For the origin of these results see US20030023038A1 (Biogen, published 2003).
